Measured values from article PMC7749166 (Communications Biology, 2020).

Key:
[1] = target: T1, human C5aR (C5aR^WT) (Homo sapiens, UniProt P21730); experiment: FD-/FV-based AFM dynamic force spectroscopy (FNdY model) of ligand-functionalized tip vs wild-type C5aR; format: binding; details: FNdY fit
T1 construct: Flag (N); made in house; host or cells: HEK-293S GnTI- cells (BacMam baculovirus)
T1 sequence (P21730 1-350): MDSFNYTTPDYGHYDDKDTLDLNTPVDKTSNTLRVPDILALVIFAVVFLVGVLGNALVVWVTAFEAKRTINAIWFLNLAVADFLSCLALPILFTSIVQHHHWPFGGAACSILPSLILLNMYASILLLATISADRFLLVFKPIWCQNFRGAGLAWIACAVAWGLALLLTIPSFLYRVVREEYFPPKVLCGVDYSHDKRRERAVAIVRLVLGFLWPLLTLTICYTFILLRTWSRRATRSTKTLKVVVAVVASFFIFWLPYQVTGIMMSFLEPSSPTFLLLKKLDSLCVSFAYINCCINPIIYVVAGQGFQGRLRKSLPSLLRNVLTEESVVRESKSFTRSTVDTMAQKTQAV
Description: (§1) The reconstituted C5aR sample solution (either wt-C5aR or mutants) was 20-fold diluted in fusion buffer solution (20 mM HEPES, 300 mM NaCl, and 25 mM MgCl2) and adsorbed on freshly cleaved mica for 15 min. After rinsing with imaging buffer (20 mM HEPES and 300 mM NaCl) the sample was transferred to the AFM.
(§2) Rectangular Si3N4 AFM cantilevers with silicon tips (BioLever mini, Bruker) were first cleaned with chloroform for 10 min, rinsed with ethanol, N2 dried, and then cleaned for 15 min in an ultraviolet radiation and ozone cleaner (UV-O, Jetlight, CA, USA). For the aminofunctionalization, the cantilevers were immersed in an ethanolamine solution (3.3 g ethanolamine in 6.6 ml DMSO) overnight and then rinsed in DMSO (3 × 1 min) and ethanol (3 × 1 min), followed by N2 drying. This was followed by the N-hydroxysuccinimide (NHS)-PEG27-acetal linker attachment. A 1 mg portion of the NHS-PEG27-acetal linker (JKU, Linz, Austria) was diluted in 0.5 ml chloroform with 30 µl triethylamine and the cantilevers were immersed in this solution for 2 h. After three rinsing steps of 10 min in chloroform and N2 drying, the cantilevers were immersed in a 1% citric acid solution for 10 min, rinsed with pure water (3 × 5 min), and dried with N2 once more. tris-NTA-derivatized AFM cantilevers were obtained by pipetting 100 µl of a 100 µM tris-N-nitrilotriacetic amine trifluoroacetate (Toronto Research Chemicals, Canada) (tris-NTA) solution onto the cantilevers, followed by the addition of 2 μl of a freshly prepared 1 M NaCNBH3 solution. The cantilevers were incubated for 1 h, then 5 μl of a 1 M ethanolamine solution pH 8.0 was added for 10 min to quench the reaction. tris-NTA cantilevers were further used to obtain C5a-derivatized tips. For this purpose, 100 μl of a 1 μM C5a protein solution was premixed with 5 μl NiCl2 5 mM and the mixture was pipetted onto the tris-NTA cantilevers. After 2 h of incubation time, the cantilevers were washed in HEPES buffer 3 × 5 min.
(§3) (JKU, Linz, Austria) dissolved in 0.5 ml of chloroform with 30 μl of triethylamine, then washed with chloroform and dried with N2. […] After 3 h of reaction, cantilevers were washed with PBS 3 × 5 min.
(§4) AFM experiments were performed with a Multimode 8 AFM equipped with a Nanoscope V controller (Bruker, Santa Barbara, CA, USA) operated in “PeakForce Tapping QNM mode”. All measurements were carried out in imaging buffer at room temperature (≈24 °C). For the high-resolution characterization of C5aR topographical features, triangular Si3N4 cantilevers (Scanasyst-Fluid+, Bruker) with a sharpened tetrahedral silicon tip of ≈2 nm radius, nominal spring constants of 0.35 N m^−1, and resonance frequency in liquid of ≈75 kHz were used. Multiparametric FD-based AFM measurements with derivatized tips were carried out using BioLever mini cantilevers (Bruker, Santa Barbara) having nominal spring constants of 0.1 N m^−1 and resonance frequency in liquid of ≈25 kHz. The spring constant was calibrated at the end of each experiment for all cantilevers used in this study using the thermal noise method.
(§5) In FD-based AFM measurements, the AFM cantilever is oscillated in a sinusoidal manner well below its resonance frequency, while the sample surface is contoured pixel-by-pixel. For each approach–retraction cycle of the oscillating cantilever, a force–distance curve is recorded. Multiparametric FD-based AFM height, Young’s modulus, and adhesion maps are then obtained from a pixel-by-pixel reconstruction of the acquired data. Overview FD-based AFM maps were acquired by scanning the sample at 1 Hz and a resolution of 512 × 512 pixels, using a force setpoint of ≈150 pN, a 2 kHz oscillation frequency, and a peak-to-peak oscillation amplitude of 100 nm. Adhesion maps were recorded using a scan rate of 0.2 Hz and 256 × 256 pixels. The functionalized AFM cantilever was oscillated at 0.25 kHz with peak-to-peak oscillation amplitudes of 100 nm.

[2] = system: human C5aR (C5aR^WT); experiment: as above; format: binding; details: sum of C5aR + PMX53 and C5aR∆Tyr values
Description: as §1, §2, §3, §4, §5

[3] = C5a tip vs C5aR^WT incubated with PMX53 (effector site blocked; probes binding site), ± s.e.m.

B1: C5a: C5a, a large 74-amino acid glycoprotein; endogenous ligand of C5aR (His6-tag at N-terminal end for AFM tips) (protein)
chain: TLQKKIEEIAAKYKHSVVKKCCYDGACVNNDETCEQRAARISLGPRCIKAFTECCVVASQLRANISHKDMQLGR
modifications: left off: His6, N-terminal, kept
- residence time τ0.5 ([1]; C5a tip vs C5aR^WT incubated with PMX53 (effector site blocked; probes binding site)): 0.2 ms
- equilibrium force Feq [1, 3]: 29 ± 4 pN
- free energy ΔGbu [1, 3]: -3.9 ± 1.8 kcal/mol
- binding equilibrium free energy ΔGbu ([1]; ± s.e.m., ligand-derivatized AFM tip, 20 mM HEPES, 300 mM NaCl, ≈24 °C): -13.6 ± 4.1 kcal/mol
- equilibrium force Feq ([1]; ± s.e.m., ligand-derivatized AFM tip, C5aR in DOPC/CHS liposomes on mica, 20 mM HEPES, 300 mM NaCl, ≈24 °C): 46 ± 7 pN
- residence time τ0.5 ([1]; ligand-derivatized AFM tip, 20 mM HEPES, 300 mM NaCl, ≈24 °C): 0.6 ms
- sum of binding free energy of both sites measured individually, ΔGbu (binding site+effector site) [2]: ~-8.6 ± 2.3 kcal/mol
